From patent US20210269480A1 (published 2021)
*1 amine or outer side, *2 acyl side, *3 side chain or, on linkers, in order; H or OH if unused. Bridges are numbered along the chain shown (N, C = ends). Where no end group is shown, it is not given here. [ ]: non-standard residue; d: D form. TATA = O=C(CC[*:1])N1CN(C(=O)CC[*:2])CN(C(=O)CC[*:3])C1; 1Nal = N[C@@H](Cc1cccc2ccccc12)C(=O)O; 2Nal = N[C@@H](Cc1ccc2ccccc2c1)C(=O)O; Hyp = O=C(O)[C@@H]1C[C@@H](O)CN1; dCya = N[C@H](CS(=O)(=O)O)C(=O)O; hArg = N=C(N)NCCCC[C@H](N)C(=O)O; Agb = N=C(N)NCC[C@H](N)C(=O)O; Pip = O=C(O)[C@@H]1CCCCN1; Aze = O=C(O)[C@@H]1CCN1; βAla = NCCC(=O)O; Sar = CNCC(=O)O

T1: human Nectin-4 (human, UniProt Q96NY8 32-349)
T1 construct: a Gly32-Ser349 FLAG construct is described only under the SPR assay; also called PVRL4
T1 sequence (looked up): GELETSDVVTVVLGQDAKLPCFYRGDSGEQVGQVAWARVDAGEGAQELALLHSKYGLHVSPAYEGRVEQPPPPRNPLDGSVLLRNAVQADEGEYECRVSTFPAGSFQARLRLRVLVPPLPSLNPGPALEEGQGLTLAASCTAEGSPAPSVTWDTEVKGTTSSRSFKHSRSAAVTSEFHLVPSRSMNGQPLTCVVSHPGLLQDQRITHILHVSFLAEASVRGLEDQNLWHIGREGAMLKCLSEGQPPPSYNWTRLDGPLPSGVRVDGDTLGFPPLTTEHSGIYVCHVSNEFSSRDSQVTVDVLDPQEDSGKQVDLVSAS

T2: Human Nectin-4 (residues Gly32-Ser349) with C-terminal FLAG tag, biotinylated (human, UniProt Q96NY8 32-349, randomly biotinylated with EZ-Link Sulfo-NHS-LC-LC-Biotin)
T2 construct: range 32-349; Captured through biotin on a streptavidin CM5 chip in the SPR assay; also called PVRL4; not shown: C-terminal FLAG tag
T2 sequence (looked up): T1 sequence (looked up)

B1: BCY7391 (peptide)
peptide: Ac-CPFGCMKNWSWPIWCTNK
modifications: linker 1-5-15 via TATA
notes: Bicyclic peptide cyclised with TATA; also called 80-09-02-T01-N011
B2: BCY7390 (peptide)
peptide: Ac-CPFGCMKNWSWPIWC
modifications: linker 1-5-15 via TATA
notes: Bicyclic peptide cyclised with TATA; also called 80-09-02-N008
B3: BCY428 (peptide)
peptide: ACPFGCMKNWSWPIWCA
modifications: linker 2-6-16 via TATA
notes: Bicyclic peptide cyclised with TATA; also called 80-09-02-N002

target: T1, human Nectin-4; experiment: FP competition, tracer SEQ ID NO 217
Experimental: Peptides were diluted to an appropriate concentration in assay buffer as described in the direct binding assay with a maximum of 5% DMSO, then serially diluted 1 in 2. […] Measurements were conducted as for the direct binding assay, however the gain was determined prior to the first measurement. Data analysis was in Systat Sigmaplot version 12.0 where the mP values were fit to a user defined cubic equation to generate a Ki value: […]

Ki	Binder
224 nM	XACPFGCMKNWSWPIWCA (N-terminal X = 44BPA (4,4-biphenylalanine); TATA on 3 Cys, also called 80-09-02-N012) [BCY7521]
10 nM	ACPF[dA]CMKNWSWPIWCTNK (linker 2-6-16 via TATA) [BCY7350]
219 nM	Ac-CPFGCMKNWSW[Pip]IWC (linker 1-5-15 via TATA) [BCY7595]
68.2 nM	ACPFGCMK[dA]WSWPIWCTNK (linker 2-6-16 via TATA) [BCY7360]
132 nM	ACAFGCMKNWSWPIWCTNK (linker 2-6-16 via TATA, also called 80-09-02-T01-N022) [BCY7352]
884 nM	ACPFACMKNWSWPIWCTNK (linker 2-6-16 via TATA, also called 80-09-02-T01-N020) [BCY7354]
45.2 nM	ACPFGCMKAWSWPIWCTNK (linker 2-6-16 via TATA, also called 80-09-02-T01-N027) [BCY7357]
26.3 nM	ACPFGCMKNWSWPIWC[dA]NK (linker 2-6-16 via TATA) [BCY7367]
43.4 nM	ACPFGCMANWSWPIWCTNK (linker 2-6-16 via TATA, also called 80-09-02-T01-N026) [BCY7356]
69 nM	Q[dK]WCAPLSDYWCNRICA (linker 4-12-16 via TATA) [BCY7426]
144 nM	AC[dA]FGCMKNWSWPIWCTNK (linker 2-6-16 via TATA) [BCY7370]
28.5 nM	XACPFGCMKNWSWPIWCA (N-terminal X = 2-Nal; TATA on 3 Cys, also called 80-09-02-N010) [BCY7421]
13.3 nM	Ac-CPFGCMKNWSWPIWCTNK (linker 1-5-15 via TATA, also called 80-09-02-T01-N011)
160 nM	ACPFGCM[dA]NWSWPIWCTNK (linker 2-6-16 via TATA) [BCY7359]
180 nM	Ac-CPFGCMKNWS[1Nal]PIWC (linker 1-5-15 via TATA) [BCY7591]
63.6 nM	XACPFGCMKNWSWPIWCA (N-terminal X = 1-Nal; TATA on 3 Cys, also called 80-09-02-N009) [BCY7420]
72.6 nM	ACPFGCXKNWSWPIWCTNK (core CPFGC(Nle)KNWSWPIWC (printed (NIe)); TATA on 3 Cys, also called 80-09-02-T01-N041) [BCY7372]
282 nM	ACPFGCMKNWSWP[dA]WCTNK (linker 2-6-16 via TATA) [BCY7365]
37.4 nM	Ac-CPFGCMKNWS[2Nal]PIWC (linker 1-5-15 via TATA) [BCY7592]
232 nM	Ac-CVTTSYDCWVTLGHCSRF (linker 1-8-15 via TATA)
73 nM	Ac-CPFGCMKNWSW[Aze]IWC (linker 1-5-15 via TATA) [BCY7594]

target: T2, Human Nectin-4 (residues Gly32-Ser349) …; experiment: SPR (Biacore), biotinylated human Nectin-4 on streptavidin chip
Experimental: Biacore experiments were performed to determine kₐ (M⁻¹s⁻¹), kd (s⁻¹), KD (nM) values of monomeric peptides binding to human Necin-4 protein (obtained from Charles River).
For analysis of peptide binding, a Biacore 3000 instrument was used utilising a CM5 chip (GE Healthcare). Streptavidin was immobilized on the chip using standard amine-coupling chemistry at 25° C. with HBS-N (10 mM HEPES, 0.15 M NaCl, pH 7.4) as the running buffer. Briefly, the carboxymethyl dextran surface was activated with a 7 minute injection of a 1:1 ratio of 0.4 M 1-ethyl-3-(3-dimethylaminopropyl) carbodiimide hydrochloride (EDC)/0.1 M N-hydroxy succinimide (NHS) at a flow rate of 10 μl/min. For capture of streptavidin, the protein was diluted to 0.2 mg/ml in 10 mM sodium acetate (pH 4.5) and captured by injecting 120 μl of streptavidin onto the activated chip surface. Residual activated groups were blocked with a 7 minute injection of 1 M ethanolamine (pH 8.5) and biotinylated Nectin-4 captured to a level of 1,200-1,800 RU. Buffer was changed to PBS/0.05% Tween 20 and a dilution series of the peptides was prepared in this buffer with a final DMSO concentration of 0.5%. The top peptide concentration was 100 nM with 6 further 2-fold dilutions. The SPR analysis was run at 25° C. at a flow rate of 50 μl/min with 60 seconds association and dissociation between 400 and 1,200 seconds depending upon the individual peptide. Data were corrected for DMSO excluded volume effects. All data were double-referenced for blank injections and reference surface using standard processing procedures and data processing and kinetic fitting were performed using Scrubber software, version 2.0c (BioLogic Software). Data were fitted using simple 1:1 binding model allowing for mass transport effects where appropriate.

Kd	Binder
0.56 nM	Ac-CP[1Nal][dR]CM[hArg]DWSTP[Hyp]WC (linker 1-5-15 via TATA, Bicyclic peptide cyclised with TATA) [BCY8184]
1.81 nM	Ac-CP[1Nal][dR]CM[Agb]DWSTP[Hyp]WC (linker 1-5-15 via TATA, Bicyclic peptide cyclised with TATA) [BCY8192]
1.84 nM	Ac-CP[1Nal][dD]CM[hArg]DWSTPIWC (linker 1-5-15 via TATA, Bicyclic peptide cyclised with TATA) [BCY8127]
44.5 nM	Ac-CPF[dD]CL[hArg]NWSTPPWC (linker 1-5-15 via TATA, Bicyclic peptide cyclised with TATA) [BCY8038]
47 nM	CPF[dD]CM[hArg]NWSTPIWC (linker 1-5-15 via TATA, Bicyclic peptide cyclised with TATA) [BCY7793]
0.89 nM	{Ac-βAla}-[Sar][Sar][Sar][Sar][Sar]CP[1Nal][dD]CM[hArg]DWSTP[Hyp]WC (linker 6-10-20 via TATA, Bicyclic peptide cyclised with TATA) [BCY8122]
0.54 nM	Ac-CP[1Nal][dR]CL[hArg]HWSTP[Hyp]WC (linker 1-5-15 via TATA, Bicyclic peptide cyclised with TATA) [BCY8214]
0.52 nM	Ac-CP[1Nal][dD]CM[hArg]HWSTP[Hyp]WC (linker 1-5-15 via TATA, Bicyclic peptide cyclised with TATA) [BCY8125]
2.42 nM	Ac-CP[1Nal][dD]CL[hArg]DWSTP[Hyp]WC (linker 1-5-15 via TATA, Bicyclic peptide cyclised with TATA) [BCY8212]
0.87 nM	Ac-CP[1Nal][dR]CM[hArg]HWSTP[Hyp]WC (linker 1-5-15 via TATA, Bicyclic peptide cyclised with TATA) [BCY8129]
1.06 nM	Ac-CP[1Nal][dR]CM[hArg]NWSTP[Hyp]WC (linker 1-5-15 via TATA, Bicyclic peptide cyclised with TATA) [BCY8128]
0.53 nM	{Ac-βAla}-[Sar][Sar][Sar][Sar][Sar]CP[1Nal][dD]CM[hArg]HWSTP[Hyp]WC (linker 6-10-20 via TATA, Bicyclic peptide cyclised with TATA) [BCY8121]
1.95 nM	Ac-CP[1Nal][dR]CL[hArg]DWSTP[Hyp]WC (linker 1-5-15 via TATA, Bicyclic peptide cyclised with TATA) [BCY8213]
0.69 nM	Ac-CP[1Nal][dD]CM[hArg]NWSTP[Hyp]WC (linker 1-5-15 via TATA, Bicyclic peptide cyclised with TATA) [BCY8124]
0.67 nM	{Ac-βAla}-[Sar][Sar][Sar][Sar][Sar]CP[1Nal][dD]CM[hArg]NWSTP[Hyp]WC (linker 6-10-20 via TATA, Bicyclic peptide cyclised with TATA) [BCY8120]
0.96 nM	Ac-CP[1Nal][dD]CMPDWSTP[Hyp]WC (linker 1-5-15 via TATA, Bicyclic peptide cyclised with TATA) [BCY8182]
3.88 nM	[βAla][Sar][Sar][Sar][Sar][Sar][Sar][Sar][Sar][Sar][Sar]CP[1Nal][dD]CMKDWSTP[Hyp]WC (linker 12-16-26 via TATA, Bicyclic peptide cyclised with TATA) [BCY8238]
14.9 nM	{Ac-βAla}-[Sar][Sar][Sar][Sar][Sar]CPF[dA]CM[hArg]NWSWPIWC (linker 6-10-20 via TATA, Bicyclic peptide cyclised with TATA) [BCY7559]
59.8 nM	B1
0.61 nM	Ac-CP[1Nal][dCya]CM[hArg]DWSTP[Hyp]WC (linker 1-5-15 via TATA, Bicyclic peptide cyclised with TATA) [BCY8163]
40.3 nM	B2
1380 nM	Ac-CVTTSYDCWVTLGHCSRF (linker 1-8-15 via TATA, Bicyclic peptide cyclised with TATA)
35.7 nM	Ac-QKWCAPLSDYWCNRIC (linker 4-12-16 via TATA, Bicyclic peptide cyclised with TATA) [BCY7392]
2.66 nM	{Ac-βAla}-[Sar][Sar][Sar][Sar][Sar]CP[1Nal][dD]CM[hArg]DWSTPIWC (linker 6-10-20 via TATA, Bicyclic peptide cyclised with TATA) [BCY8123]
7.32 nM	Ac-CP[1Nal][dD]CL[hArg]DWSTPIWC (linker 1-5-15 via TATA, Bicyclic peptide cyclised with TATA) [BCY8211]
1.71 nM	Ac-CP[1Nal][dD]CM[hArg]NWSTPIWC (linker 1-5-15 via TATA, Bicyclic peptide cyclised with TATA) [BCY8030]
334 nM	B3
